Experimental data reported in patent US20130012427A1.

What was measured:
Assay in all cases: cell-based or functional assay
[1] = target: human amylin 3(a) receptor (human calcitonin receptor co-expressed with RAMP-3) (human) (UniProt P30988)
[2] = target: human amylin 3(a) receptor (human calcitonin receptor with RAMP-3) (human) (UniProt P30988)
[3] = target: human calcitonin (a) receptor (human) (UniProt P30988)
human calcitonin (a) receptor (human), sequence (P30988 25-474): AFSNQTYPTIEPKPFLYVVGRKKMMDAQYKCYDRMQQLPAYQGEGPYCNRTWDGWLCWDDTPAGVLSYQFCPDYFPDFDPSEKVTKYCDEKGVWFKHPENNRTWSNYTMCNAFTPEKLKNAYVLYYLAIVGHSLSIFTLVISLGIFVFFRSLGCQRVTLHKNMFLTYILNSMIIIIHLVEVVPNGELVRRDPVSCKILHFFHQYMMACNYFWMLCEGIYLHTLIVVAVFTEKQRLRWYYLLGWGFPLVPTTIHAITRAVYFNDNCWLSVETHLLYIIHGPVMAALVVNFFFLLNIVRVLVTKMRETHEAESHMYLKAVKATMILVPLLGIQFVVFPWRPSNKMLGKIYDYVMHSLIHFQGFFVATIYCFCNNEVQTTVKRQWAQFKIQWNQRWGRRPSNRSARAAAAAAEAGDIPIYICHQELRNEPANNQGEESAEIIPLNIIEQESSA

human amylin 3(a) receptor (human calcitonin receptor co-expressed with RAMP-3) (human), sequence (P30988 25-474, chain 1 of 2): as the sequence (P30988 25-474) above
human amylin 3(a) receptor (human calcitonin receptor co-expressed with RAMP-3) (human), sequence (O60896 24-148, chain 2 of 2, further chain): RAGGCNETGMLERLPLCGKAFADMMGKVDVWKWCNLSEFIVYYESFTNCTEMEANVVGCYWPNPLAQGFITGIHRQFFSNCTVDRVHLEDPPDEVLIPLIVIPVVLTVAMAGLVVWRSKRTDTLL
human amylin 3(a) receptor (human calcitonin receptor with RAMP-3) (human), sequence (P30988 25-474, chain 1 of 2): as the sequence (P30988 25-474) above
human amylin 3(a) receptor (human calcitonin receptor with RAMP-3) (human), sequence (O60896 24-148, chain 2 of 2, further chain): as the sequence (O60896 24-148, chain 2 of 2, further chain) above

Amylin receptor human EC50 (pM) [1]: 45 pM
Amylin receptor human EC50 (pM) [2]: 45 pM
CTa receptor human EC50 (pM) [3]: 61.5 pM
Substance: N-alpha-(19-carboxynonadecanoyl)-Glu-Glu-Arg-[Glu1,Pro37]-pramlintide (peptide)
